T1: peptide of Orai1's second extracellular loop (OP2)
T1 construct: Peptide corresponding to amino acids 195-234 of Orai1
T1 peptide: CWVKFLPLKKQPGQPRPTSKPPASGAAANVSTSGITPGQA

T2: Orai1 extracellular peptide 1 (OP1)
T2 peptide: EVQLDADHDYPPGL


What was measured:
[1] = target: T1, peptide of Orai1's second extracellular …; assay: dynamic light scattering (Z-average)
From the text: (§1) Endogenous Orai1/store operated Ca²⁺ influx have been extensively studied in HEK293T cells, so this cell type was used to understand ELD607-Orai1 interactions. […] Thapsigargin is a SERCA pump inhibitor that prevents uptake of cytosolic Ca²⁺ into the endoplasmic reticulum. Thapsigargin is commonly used to stimulate Orai1/store operated Ca²⁺ influx. […] Dynamic light scattering (DLS) was used to evaluate binding of ELD607 to peptides of Orai1 extracellular loops. […] Thus, it was concluded that ELD607 interacts with Orai1.

[2] = target: T2, Orai1 extracellular peptide 1 (OP1); assay: dynamic light scattering, Z-average increased
From the text: as §1

[3] = target: T3, Orai1 plasma membrane Ca^2+ channel (endogenous, HEK293T cells and ARDS patient immune cells) (UniProt Q96D31 1-301, limits assumed); assay: cell-based or functional assay
T3 sequence (Q96D31 whole entry): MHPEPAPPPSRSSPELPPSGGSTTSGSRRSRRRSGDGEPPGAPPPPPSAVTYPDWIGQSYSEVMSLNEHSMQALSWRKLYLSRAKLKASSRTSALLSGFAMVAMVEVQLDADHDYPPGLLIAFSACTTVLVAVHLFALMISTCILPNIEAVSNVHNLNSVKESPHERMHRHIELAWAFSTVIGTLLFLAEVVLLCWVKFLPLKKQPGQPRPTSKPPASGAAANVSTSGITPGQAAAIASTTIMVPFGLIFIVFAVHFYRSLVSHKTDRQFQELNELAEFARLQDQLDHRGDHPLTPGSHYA

[4] = target: T3, Orai1 plasma membrane Ca^2+ channel …; assay: cell-based or functional assay; remark: listed apart in the source

| binding result [1] | binding result [2] | IC50, inhibiting store operated Ca^2+ influx in HEK293T cells [3] [nM] | IC50 (Molar), Ca^2+ influx after Ca^2+ add back, HEK293T cells [4] [Molar] | Binder |
| --- | --- | --- | --- | --- |
| no binding | binds | 9 | 8.1e-08 | VHDIVNMLIRG (Synthetic 11-residue peptidomimetic derived from ELD100 (H14R, deletion of positions 1-4, L16 deletion); also called ELD142-11) [ELD607] |
| – | – | 124 | 3.7e-08 | DITLVHDIVNMLIHGL [ELD100 peptide] |

— patent publication US20250114430A1 (UNIVERSITY OF NORTH CAROLINA AT CHAPEL HILL, published 2025)
